Measured values published in PMC5603731, “The SET1 Complex Selects Actively Transcribed Target Genes via Multivalent Interaction with CpG Island Chromatin” (Cell Reports, 2017).
No end group written: not given here.

Experiments:
mouse C127 cells = experiment: FRAP, nuclear mobility of GFP fusion proteins; type: cell-based; conditions: compared to wild-type GFP-CFP1
Description: FRAP experiments were performed on an UltraView spinning disk microscope (Perkin Elmer) equipped with an EM-CCD camera (Hamamatsu) using a 60x/1.4NA oil objective. 50 pre-bleach and 1,000 post-bleach images were captured at a rate of 8 frames per second (fps) (Figures 1B and C) after bleaching a circular diffraction limited spot of ∼2.5 μm diameter using a 488-nm laser line at 100% transmission. Alternatively, to capture the rapid recovery of the P/C/S^∗ mutant effectively, we used an acquisition rate of 13 fps (Figures 1E and F). FRAP curves were calculated in MATLAB, normalizing for the initial conditions (brightness of the cell and brightness of the spot) and corrected for acquisition photobleaching over time ([Mueller et al., 2012]). Half recovery times (t1/2) were calculated using a biexponential fit. Briefly, this involved deriving t1/2 values from individual cells (Figures S1F and S1G) and then collecting the distribution of t1/2 values across biological triplicates for the same transgene (Figures S1H and S1I). To compare the dynamics of individual GFP-CFP1 transgenes, a Student’s t test was then used to calculate the probability (p) that there was no difference between the wild-type and mutant versions of CFP1.
Supplementary Experimental Procedures: […]
Fluorescence recovery after photobleaching (FRAP) […]

CFP1 PHD domain [1] = experiment: other fluorescence titration; intrinsic fluorescence of the CFP1 PHD finger, excitation 280 nm, emission 320-380 nm; increasing concentrations of histone peptide; 20 mM Tris-HCl pH 6.8, 100 mM NaCl, 2.5 mM DTT; 25°C
CFP1 PHD domain [2] = experiment: NMR titration; 1H,15N HSQC of 0.1-0.2 mM uniformly 15N-labelled CFP1 PHD finger; histone tail peptides added stepwise; 20 mM Tris-HCl pH 6.8, 100 mM NaCl, 2.5 mM DTT, 7% D2O; 298 K

Molecule	Kd (CFP1 PHD domain [1]) [µM]	other results
GFP-SET1A: GFP-tagged wild-type SET1A	–	Nuclear mobility (FRAP) (mouse C127 cells): slightly less mobile than GFP-CFP1
ARTK(Me)QTARKSTG [H3K4me1 peptide]	64	–
ARTKQTARKSTG (here or on the partner: zinc-bound PHD finger; 15N-labelled for NMR. Construct limits are not in the text shown, so the UniProt PHD-type zinc finger limits are used; human is inferred from the NP_001095124.1 alignment and th) [unmodified H3K4me0 peptide]	–	Kd (CFP1 PHD domain [2]): 373 µM

Continued, in another order:

Kd (CFP1 PHD domain [1]) [µM]	Molecule	other results
9.1	ARTK(dimethyl)QTARKSTG [H3K4me2 peptide]	–
1.3	ARTK(trimethyl)QTARKSTG [H3K4me3 peptide]	–
